Reference: patent US20230181756A1 (Novartis, published 2023)
Numbering of substitutions follows the chain as printed. In names and notes the source's numbering stands.

What was measured:
[1] = target: T1, CCR8 (UniProt P51685 1-355, limits assumed); experiment: FACS on CHO-CCR8 cells
T1 construct: whole, on cells; also called CHO-CCR8

[2] = target: T2, CXCR4 (UniProt P61073 1-352, limits assumed); experiment: FACS on HEK293-CXCR4 cells
T2 construct: whole, on cells; also called HEK293-CXCR4

[3] = target: T3, CCR9 (UniProt P51686 1-369, limits assumed); experiment: FACS on PF382 cells (CCR7-/CCR9+/CCR6+)
T3 construct: whole, on cells; also called PF382 cells (CCR7-/CCR9+/CCR6+)
T3 sequence (looked up): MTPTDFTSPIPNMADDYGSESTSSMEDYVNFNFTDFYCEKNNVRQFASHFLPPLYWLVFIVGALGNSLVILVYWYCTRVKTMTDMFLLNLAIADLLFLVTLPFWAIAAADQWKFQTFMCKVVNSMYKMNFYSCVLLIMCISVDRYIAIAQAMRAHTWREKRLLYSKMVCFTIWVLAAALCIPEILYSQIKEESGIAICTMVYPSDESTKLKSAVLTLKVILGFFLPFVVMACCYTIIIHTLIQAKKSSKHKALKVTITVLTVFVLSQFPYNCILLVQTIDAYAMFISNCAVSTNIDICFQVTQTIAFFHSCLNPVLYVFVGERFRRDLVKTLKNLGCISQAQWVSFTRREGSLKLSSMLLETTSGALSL

[4] = target: T4, CCR6 (UniProt P51684 1-374, limits assumed); experiment: FACS on PF382 cells (CCR7-/CCR9+/CCR6+)
T4 construct: whole, on cells; also called PF382 cells (CCR7-/CCR9+/CCR6+)
T4 sequence (looked up): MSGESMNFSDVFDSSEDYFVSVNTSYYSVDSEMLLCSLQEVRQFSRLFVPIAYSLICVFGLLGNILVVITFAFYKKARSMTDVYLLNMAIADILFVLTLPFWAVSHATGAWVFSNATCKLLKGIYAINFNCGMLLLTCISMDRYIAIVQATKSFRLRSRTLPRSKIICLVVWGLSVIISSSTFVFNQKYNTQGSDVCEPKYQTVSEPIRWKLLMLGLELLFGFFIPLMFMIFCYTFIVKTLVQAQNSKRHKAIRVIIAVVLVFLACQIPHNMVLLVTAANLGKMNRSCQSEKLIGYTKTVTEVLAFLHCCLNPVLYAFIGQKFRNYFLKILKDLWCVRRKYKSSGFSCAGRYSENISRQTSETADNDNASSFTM

[5] = target: T5, cynomolgus monkey CCR7 (cynomolgus monkey, UniProt P32248 25-378 (human entry)); experiment: FACS titration, cynomolgus CD4+ T cells
T5 construct: also called Cyno CCR7; NIH3T3.cyno CCR7
T5 sequence: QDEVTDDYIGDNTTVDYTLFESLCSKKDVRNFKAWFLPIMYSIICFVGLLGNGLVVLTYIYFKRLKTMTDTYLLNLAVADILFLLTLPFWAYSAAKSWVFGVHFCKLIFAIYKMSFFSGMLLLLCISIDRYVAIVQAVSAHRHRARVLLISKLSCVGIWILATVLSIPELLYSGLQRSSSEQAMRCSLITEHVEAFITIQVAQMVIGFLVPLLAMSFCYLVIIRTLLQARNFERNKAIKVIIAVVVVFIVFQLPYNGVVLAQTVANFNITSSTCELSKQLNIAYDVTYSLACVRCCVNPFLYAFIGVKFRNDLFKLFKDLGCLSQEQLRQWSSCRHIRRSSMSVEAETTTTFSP

[6] = target: T6, human CCR7 (human, UniProt P32248 25-378); experiment: FACS titration, human CD4+ T cells from PBMC
T6 construct: The assay field tells which; also called hCCR7; NIH3T3.hCCR7
T6 sequence: T5 sequence with G174D

[7] = target: T6, human CCR7; experiment: ELISA on CCR7-expressing VLPs, pH 5.8 buffer
[8] = target: T6, human CCR7; experiment: ELISA on CCR7-expressing VLPs, pH 7.4 buffer
[9] = target: T5, cynomolgus monkey CCR7; experiment: FACS titration, NIH3T3 cells expressing cyno CCR7
[10] = target: T6, human CCR7; experiment: FACS titration, NIH3T3 cells expressing human CCR7
[11] = target: T6, human CCR7; experiment: FACS titration, DEL cells (CCR7 receptor levels >=100,000)

T1 sequence (P51685 whole entry): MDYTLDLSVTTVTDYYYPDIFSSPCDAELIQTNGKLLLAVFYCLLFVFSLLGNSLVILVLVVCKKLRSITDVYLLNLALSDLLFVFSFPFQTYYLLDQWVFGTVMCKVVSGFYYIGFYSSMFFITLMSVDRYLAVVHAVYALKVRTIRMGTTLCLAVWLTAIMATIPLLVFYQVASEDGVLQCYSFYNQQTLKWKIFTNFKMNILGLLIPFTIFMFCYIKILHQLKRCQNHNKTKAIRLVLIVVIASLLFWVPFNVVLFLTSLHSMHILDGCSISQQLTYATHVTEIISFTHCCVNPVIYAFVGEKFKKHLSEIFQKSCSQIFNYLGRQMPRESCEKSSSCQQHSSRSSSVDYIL
T2 sequence (P61073 whole entry): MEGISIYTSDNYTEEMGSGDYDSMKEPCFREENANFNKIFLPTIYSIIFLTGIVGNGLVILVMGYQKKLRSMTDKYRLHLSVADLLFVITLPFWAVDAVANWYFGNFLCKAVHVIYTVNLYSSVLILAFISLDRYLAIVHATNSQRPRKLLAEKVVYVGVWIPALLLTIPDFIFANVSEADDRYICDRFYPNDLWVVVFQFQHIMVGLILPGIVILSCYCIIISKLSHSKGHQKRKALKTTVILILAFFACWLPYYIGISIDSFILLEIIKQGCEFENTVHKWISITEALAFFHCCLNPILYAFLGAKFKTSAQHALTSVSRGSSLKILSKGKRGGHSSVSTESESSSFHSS

B1: 121G12 humanized CysMab (Fc Wild Type) (antibody, V domains shown)
VH: EVQLVESGGGLVKPGGSLRLSCAASGFTFSTYAMSWVRQAPGKGLEWVATISDAGSYSYYPDNVKGRFTISRDNAKNSLYLQMNSLRAEDTAVYYCARRGSRYEEYYVMDYWGQGTTVTVSS
VL: EIVLTQSPATLSVSPGERVTLSCRASQSISNNLHWYQQKPGQAPRLLIKYASQSISGIPARFSGSGSGTDFTLTISSVEPEDFGVYFCQQSSSWLTFGQGTKLEIK
notes: Human IgG1 kappa with CysMab cysteines (E152C, S375C); also called Humanized CysMab antibody 121G12; 121G12.CysMab.DAR4 unconjugated (assigned)
B1: no binding (tested: 5 ug/ml) [1]; no binding (tested: 5 ug/ml) [2]; no binding (tested: 5 ug/ml) [3]. The binding result [4] was “no binding (tested: 5 ug/ml)”, the EC50 [5] was 12 nM and the EC50 [6] was 30 to 34 nM. For the same binder, the Kd [7] was 0.521 nM, the Kd [8] was 0.141 nM and the EC50 [9] was 0.9 nM. It also gave an EC50 [10] of 1 nM and an EC50 [11] of 5.24 nM.
